Here are results for three substances from patent publication US20110117206A1, “PHOSPHOPEPTIDES AND USE OF THE SAME” (PLANT BIOSCIENCE LIMITED, priority 2008, published 2011).

The nature of data set [1]: Fetuin A / casein phosphopeptide mixed nanoclusters, dynamic light scattering. To be noted: 66.4 mg ml^−1, Mg-free Buffer A, urea/urease method. It counts as physicochemical. The protocol: Fetuin A was purchased from Sigma Aldrich as product no. F3004. […] The inventors determined the precipitation problem was much reduced at lower fetuin A concentrations so an approach was adopted in which mixed nanoclusters were prepared with casein phosphopeptides and a variable concentration of the fetuin A to recover the size of the fetuin nanoclusters by an extrapolation procedure from lower concentrations. The casein phosphopeptide mixture was supplied by Arla Ltd, Denmark as product Lacprodan 2090 (Na salt). […] The intensity weighted normalised distribution curves calculated by Laplace transformation of the correlation functions of the 6 samples, offset vertically for clarity (FIG. 18a) indicate a nanocluster peak of about 6 nm in accordance with previous work, but as the fetuin A concentration increased, a second peak became increasingly important at larger size. […] Although difficult to estimate exactly, on the basis of scattering by homogeneous spherical particles, the weight fraction of aggregated material in these experiments was calculated to be less than 1% in all cases. […]

A short description of data set [2]: SAXS of free OPN and OPN 1-149 (Guinier, worm-like chain model). It counts as physicochemical. The protocol:
In a SAXS experiment, wherein measurements were made on station 2.1 at the CCLRC Daresbury Laboratory, the normalised scattered intensity I(q) was measured. For a dispersion of isotropic, monodisperse particles, I(q) is related to the inter-particle structure factor, S(q) and the particle scattering factor P(q) by
where N is the number of particles of mean excess scattering length density over the solvent Δ ρp, volume Vp and mass M. The scattering wave vector is q=4π sin θ/λo, where θ is half the scattering angle and λo is the wavelength of the X-rays. In a dilute solution where S(q)=1 and a fraction α′ of the peptide chains have formed a polydisperse distribution of nanoclusters, equation (22) becomes
The molar volumes of the unphosphorylated residues were taken from Jacrot and Zaccai (Jacrot, B. & Zaccai, G. (1981). Determination of Molecular-Weight by Neutron-Scattering. Biopolymers 20, 2413-2426). The molar volume of ortho-L-phosphoserine was calculated from the unit cell volume of the amino acid, as determined by Sundaralingam (Sundaralingam, M. & Putkey, E. F. (1970). Molecular structures of amino acids and peptides. II. A redetermination of the crystal structure of L-O-serine phosphate. A very short phosphate-carboxyl hydrogen bond. Acta Crystallographica B26, 790-800) and 11 Å^3 subtracted to give the residue volume of 168.7 Å^3. The difference in residue volumes of serine and phosphoserine was then used to calculate a residue volume for phosphothreonine of 191.7 Å^3. The X-ray forward scattering amplitudes of the residues were calculated from the elemental compositions using atomic scattering factors. For OPN 16P 1-149 and OPN 28P 1-262, the scattering length densities in units of […] were calculated to be 12.56 and 12.48, respectively. For the nanoclusters prepared with OPN 16P 1-149 it was assumed that the phosphate moieties of the 10 phosphorylated residues found in the three PCs, were assigned to the core, giving ρshell=12.40×10^10 cm^−2. For the core, a hydrated CaP with the composition given by equation (2) gave ρcore=19.1×10^10 cm^−2. Radii of gyration of the whole protein and N-terminal polypeptide were independent of concentration in the range 5-15 mg ml^−1. For OPN the average of three determinations by the Guinier method was 5.50±0.17 nm and the corresponding value for OPN 1-149 was 2.17±0.24 nm. For OPN with 262 residues, equation (28) predicts a radius of gyration of 5.38 nm and for the N-terminal plasmin peptide of 149 residues, the predicted value is 3.84 nm.
Random-coil behavior and the dimensions of chemically unfolded proteins. Proceedings of the National Academy of Sciences of the United States of America 101, 12491-12496). […]

A short description of data set [3]: Ca2+ binding isotherm (Ca ion selective electrode) fitted with semi-empirical binding model. To be noted: from isotherm fit. The text has this: To model the chemical species in the OPN 1-149 nanocluster solution requires the calculation of Ca ion binding to the free peptide at any pH in the range 5.0-8.0. A semi-empirical model was used to describe the binding isotherms obtained previously for the β-casein 1-25 phosphopeptide in this pH range and the same model was adapted to fit the binding isotherm of OPN 1-149 measured at pH 7.0. The rescaled model was then used to predict binding at any other value of the pH. Binding of Ca ions to the β-casein 1-25 peptide is predominantly to 4 phosphorylated residues and, to a lesser extent, to 7 Glu residues and the C-terminus.
Fitting of the experimental isotherms was done to an equation of the form
where the summation is over all binding sites with Ca ion association constants Ka,i. The function Ni(pH) describes the number of sites of type i as a function of pH and φi is the degree of phosphorylation. It was assumed, that all the phosphorylated sites had the average degree of phosphorylation φ. The number of dianionic phosphoseryl sites at a given pH is given by
The binding behaviour of β-casein has shown that one Ca ion is bound much more strongly than the rest, so the model for binding to the phosphate dianionic groups allowed for two pKs and two Ca ion association constants. The phosphorylated sites have a reduced affinity for Ca ions when they become protonated and were treated as having the same low affinity as the carboxyl groups. […]
The Ca^2+ binding isotherm of peptides recovered from fraction F3a was determined by measuring the concentration of free Ca ions with a Ca ion selective electrode after successive small additions of a stock solution of 100 mM Ca(NO3)2 to a solution containing 25 mg ml^−1 of F3a, buffered to pH 7.0 with 20 mM P, and 50 mM KNO3. […] The calculated OPN 1-149 isotherm was obtained by a separate fitting of the single isotherm employing a model with two pKs and association constants but keeping as many as possible of the constants from the casein model.

Ends that are not written are not given here.

For “Fetuin A: purchased from Sigma Aldrich, product no. F3004, purity about 80-90%”, the “nanocluster preparation with fetuin A alone” value in data set [1] is recorded as “a fraction of the product precipitated”.

For “OPN: full length native bovine milk osteopontin, gel filtration fraction F2”, in data set [2] (fit of SAXS), the “Kuhn length from the worm-like chain model” value was 1.74±0.14 nm. Besides, the “radius of gyration by the Guinier method” value in data set [2] (free peptide, 5-15 mg ml^−1, average of three determinations) worked out at 5.50±0.17 nm. Further, the “Kuhn segment length b from equation (24)” value in data set [2] (from radius of gyration) came to 1.9 nm.

Regarding “β-casein 1-25: 25 residue N-terminal bovine β-casein tryptic phosphopeptide (RELEELNVPGEIVESLSSSEESITR; also: phosphopeptide (4P), sites not given here; UniProt P02666 16-40, looked up, fragment)”, in data set [3], the “effective pK of the isolated Pse residue” value is listed as 6.0 and the “pK of the cluster of three Pse residues” value was 7.2.
